{"source": "the DeepSol protein solubility set"}
{"test": "soluble on expression in E. coli; label from the status in PepcDB or PDB records"}
{"sequence": "MDPQILSPASYGNRAPQKKKKPKKPSAELPSRHSTRSDENSGKIEPGTEHMSSGQRKNLKLLKSDERARVIDARAVLDSAQKHLATLLKNGGKGGDEDIDELIFNREAEIPVEPIRKGKCPFYFDQRILTIVGRVGEVPVQHWFAIYNTSPFPYMFKIKCSDNSLFKIHPVCGVLDALCDAEISVTFVGAHVPPRYTSYLSIHSMLPDPLFLDVPQAFRNRRNFETRQRLYVEYAYHEDPILVTAEEDRDQFHFQYMRKVLKTDEAESFAKKLKAEKVERLDKKIDEIKARKIDEKLIEREIVRAESPKFEPKTRRLRVEKFFNQQKQKKENEWMEKLKVDASRKPMLSHWDLEMKNIKAEKKKIGAVKKKIKAEKKEDKKKPMGWMSTLKMERDERRTKRKEEEEKKKKDAEEKKKKDAEEKKKKDAEDEKKKDAGDEKKKDAEDEKKKDAGDEKKKKDAGEKKKKDAEEKKKVAEEEKKS", "soluble on expression in E. coli": "soluble"}
{"sequence": "MRDVAIIGVKNTKFGELWERSLRDIVVEAGIGAIQDAGVSGKDIDALYIGNMSGGRFVEQEHIGALIADYSGLSRNLHVPATRVEAACASGGLALRQAIMAVASGYSEIVVAAGAEKMTDVGSEEASSALAAAADREWEGMAGATFPGLYAMIAKLHMHMYGTTGEQLAEVAVKNHKNGSFNPIAQYKNTITVDNVLNSIMVADPLHIFDCSPITDGASALVLAPAEIAHKYTDTPIYIKATAQASDTIALHDRRDITTLDATVMAAKRAYSMAKLTPEDIDLVEVHDCFTIAEICAIEDLGFAEKGKGGIVTENGETAIGGRIPVNTSGGLKACGHPVGATGIKQAVEIVTQLRGEAGKRQVEGAEYGMTHNVGGSGATAVVHIFSRGM", "soluble on expression in E. coli": "not soluble"}
{"sequence": "EHEHNYHPNAVAAGLRAGRTRSIGLVIPDLENTSYTRIANYLERQARQRGYQLLIACSEDQPDNEMRCIEHLLQRQVDAIIVSTSLPPEHPFYQRWANDPFPIVALDRALDREHFTSVVGADQDDAEMLAEELRKFPAETVLYLGALPELSVSFLREQGFRTAWKDDPREVHFLYANSYEREAAAQLFEKWLETHPMPQALFTTSFALLQGVMDVTLRRDGKLPSDLAIATFGDNELLDFLQCPVLAVAQRHRDVAERVLEIVLASLDEPRKPKPGLTRIKRNLYRRGVLSRS", "soluble on expression in E. coli": "soluble"}
{"sequence": "MGSDKIHHHHHHMGKKHTSSYEVAYYDGDFTGAMKIPALLAVVIKVSEEQTELLGRDAAYVAQFGLGWVITNYEIEIHRLPKVGEKVAITTQAMSYNKYFCYRNFWVHDEEGKECVFVKSTFVLMDQKNRKISSVLPEIIAPFASAAITKIYRHEKIEKVTEGNFLPYRVRFFDIDGNQHVNNAIYFNWLLDVLGYDFLTTHQPKKILVKFDKEVEYGQEVESHYEIVEQENQLKTRHEIRIDGQTYCEANIDWTN", "soluble on expression in E. coli": "not soluble"}
{"sequence": "YSSRRFEKKKIHFPSRRRRFVDYLINAQRSEKLELNSQQQLGNRHSGSSELVKSESRKKAKSSNQKEKVKPEKRGRATATTGAGPTIDQSLKGPTGTTMASERGMTMTQTIQKEKSIKKKKSEKDERKRAKEVGNEEAAADNQTVTQGNDTTTTQGPSSMFPADLSKKHRLGLQKVKERAVEVPEKKKTKNNE", "soluble on expression in E. coli": "not soluble"}
{"sequence": "MESPNMNQPKINSTAGCALPPPNEMILKWAAERPNEVYLKQIINRQFVEFTYAEVADQALKLVSALRGLGIQPGDKVALVSKNCAE", "soluble on expression in E. coli": "not soluble"}
{"sequence": "ISGGSSISMMYKYCSRLPHDEFFQPKPEFQFKPVDEFGGTICRITLPANAPISEIESSLLPSTEAAKKDACLKAVHELHNLGVLNDFLLPDSKDEIEDELSD", "soluble on expression in E. coli": "soluble"}
{"sequence": "MKDDRQKASVLAVRMIPNVDLAMCKEFSMPEGHRSIGLITSDCDDVTYTALDDATKKADIKVVYAKSFYGGAANANTKLAGEVIGIISGPNPAEVKSGLSAVVDFVENEAAFISANEDDSIAYYAHCISRTGSYLSEVAGIPEGESIAYLIAPPLEAMYALDVALKSANVELVAFYGPPSETNFGGGLLTGSQSACKAACDAFAEAVKAVAANPLGY", "soluble on expression in E. coli": "not soluble"}
{"sequence": "MGSDKIHHHHHHMEVIHPRCAGVDISKKDAKVCVRIQGRGGRSTTSTITTWGSMTGQILGLKEHLLDEHVDLVVMEATGDYWRPFYYLLEDDGLNIILVNAHDARNVPGRKTDVSDAAWLADLGAHGLVRASFVPPPPIRELRDLTRARTIITQERTREIQRLEKLLEDACIKLSSVASNITGVSGRLILQALIDGQTDPAALAEMAQRRLRSKIPELTQALNGRFTEHHRYMTGLYLHRIDAHTADINDLSARIEAAMEPFRFARELLVSIPGFSTTIAEIFIAETGADMSAFATAGQLASWAGTSPGSNESAGRVKSTKTRPGNRYLKGALGIAALSCAKSKNTYLGARYRRIASRRGPAKALVAVEHSILTAAWHMLTTGELYNDPGADYFTRQTPVKTMARAVRQLESLGYQVILEPLQQTG", "soluble on expression in E. coli": "not soluble"}
{"sequence": "MGSDKIHHHHHHMHLSNSPNSHDPDAQARFWFARQQGQTLSEAEQQQLAEWLAANPLHQDAWRRVEEDWLAIDRYRHALNDELKKARRNRPGQHKAAFQLKRRAAAAALLVAVCIPVLYQGMTGTTTYWNTLKGEQQQITLAGGSTLNLDTATRITVTQNWFTHHVQLHEGEIYLETASSDWHTLRVSAEHYEIRDIGTRFSVRYIPDQFMVEVAEGTVEVKKQGQLVLLQAGEVLSIITGSNEWRLAALPAGDIAHWRKGLLVFNAHRLHDVLHEIARYHTVQFDLADSAIGEIQVSGRFKLDELDTNLQIIADTLKINIEHPAPGRYRLGALRQSTR", "soluble on expression in E. coli": "not soluble"}
{"sequence": "MSLSTDTAPAQTMHAGRLIARRLKASGIDTVFTLSGGHLFSIYDGCREEGIRLIDTRHEQTAAFAAEGWSKVTRVPGVAALTAGPGITNGMSAMAAAQQNQSPLVVLGGRAPALRWGMGSLQEIDHVPFVAPVARFAATAQSAENAGLLVDQALQAAVSAPSGVAFVDFPMDHAFSMSSDNGRPGALTELPAGPTPAGDALDRAAGLLSTAQRPVIMAGTNVWWGHAEAALLRLVEERHIPVLMNGMARGVVPADHRLAFSRARSKALGEADVALIVGVPMDFRLGFGGVFGSTTQLIVADRVEPAREHPRPVAAGLYGDLTATLSALAGSGGTDHQGWIEELATAETMARDLEKAELVDDRIPLHPMRVYAELAALLERDALVVIDAGDFGSYAGRMIDSYLPGCWLDSGPFGCLGSGPGYALAAKLARPQRQVVLLQGDGAFGFSGMEWDTLVRHNVAVVSVIGNNGIWGLEKHPMEALYGYSVVAELRPGTRYDEVVRALGGHGELVSVPAELRPALERAFASGLPAVVNVLTDPSVAYPRRSNEGHHHHHH", "soluble on expression in E. coli": "not soluble"}
{"sequence": "MSLNPNYSIFAELYDELFDPNMYLSWNGFVQDNSRNNRILDLAGGSGKLAVLLTKSGYQVSILDLSSQMLSLAKQRAENNNFSFDLFQANMAQNWHLNKRFPLISCFADSLNYLSNIGETKRTFFEVFNHLEKNGKFLFDVITPYQVNVVYRNYMYNNDDDPEKIFMWTSFPGDIKNSVDHDLKFFVYQEGIDAFKMVREVHHEQTYPPEKYLSLLKEIGFRNIHLTSDFGRGKITRDTTRAFFVAEKEGHHHHHH", "soluble on expression in E. coli": "not soluble"}
{"sequence": "MGSDKIHHHHHHMKIILANPRGFCAGVDRAISIVELALEIHGAPIYVRHEVVHNRFVVDGLRDRGAIFVEELDEVPNGAIVIFSAHGVSQAVRQEAKERNLKVFDATCPLVTKVHMQVARASRKGTKAILIGHEGHPEVIGTMGQYDNDKGGIYLVEDVEDIAKLTLRNDEDITFMTQTTLSIDDTADVIEVLKQKYPAIQGPRKNDICYATTNRQQAVRELAELSDLVIVVGSKNSSNSNRLAELASRMGVTAKLIDDANDIEVSWLNNVKVIGLTAGASAPEILVQSVISRLKELGVDEVEELEGCEENTVFEVPKELRINKVE", "soluble on expression in E. coli": "not soluble"}
{"sequence": "MSFYYSNIVSNQEKTFYDAQFSMSSLKQVSPISGSPQRDDSFNISPASSSPDMLVETWKSDEENAKSESPSSQSTTATSTNDDLFASVGTWEVHANENNITVNKKKKRSRKIRRLRDVQDSDEERPKPVIALVPLVPNPFCVSDSLLSKLGPVATKRRRVCFNPTISFHYYCVDK", "soluble on expression in E. coli": "not soluble"}
{"sequence": "SHVETGPNGEQIRKHAGQKRTYKAISESYAFLPREAVTRFLMSCSECQKRMHLNPDGTDHKDNGKPPTLVTSMIDYNMPITMAYMKHMKLQLLNSQQDEDESSIESDEFDMSDSTRMSAVNSDLSSNLEERMQSPQNLHGQQDDDSAAESFNGNETLGHSSIASGGTHSREMGDSNSDGKTGLEQDEQPLNLSDSPLSAQLTSEYRIDDHNSNGKNKYKNLLISDLKMEREARENGSKSPAHSYSSYDSGKNESVDRGAEDLSLNRGDEDEDDHEDHDDSEKVNETDGVEAERLKAFNDESAPADKQCKPEATQATYSTSAVPGSQDVLYINGNGTYSYHSYRGLGGGLLNLNDASSSGPTDLSMKRQLATSSGSSSSSNSRPQLSPTEINAVRQLVAGYRESAAFLLRSADELENLILQQN", "soluble on expression in E. coli": "soluble"}
{"sequence": "MKIQLDINGTEIQKGVWVGSGAIIEPGAILNPPCVIGDNCRIESGAVIDSLSVIGNNNVIERDSSVKRSVIWDGNYIEYGSKIRGAILCSKTNLKRYVHIFENAIVGDNCLINERVVIKPNIKIWPQKTVEPFAIVDRNIIWGSKLEHHHHHH", "soluble on expression in E. coli": "not soluble"}
{"sequence": "MGSDKIHHHHHHMIIELFGPPGAGKTTLLRGLCQGMAKHGINVKTVNGYRLIEYGSAQEDGPEVRHGIGRIGKKIATSGPVLLSTLPKDGVAARLLASIPLRSLTWSWRMKVDIALLCESWRQAQESEGYFIFEEGIIQALCALVVLARTPSIDVVRDCLAFLPRPDLLIQLDAPQETLRRRLMDRHAQQPLLEVLLFELGVDRGLRQADISRDIGKCLRQDGWPLIKVNGAEPHDLDKIITRILEEHETVPV", "soluble on expression in E. coli": "not soluble"}
{"sequence": "KFGASQDVVKWQEVTSNLPELSKKLMSSSSEPLSDDEMADLTLALRTRLHYQPEDSTGWLLLGRIALANRDVTTAIDSMKKSYALEPKDPDVMLGYAQALMLSQDEMDQATARSLLGKLMQQDYVDLRVFSLLAFDAFERKDYPAAIKYWGIMQQMIGPDDSRYESLSRSIDHARKQMGEVVSPDKSVAVTINVAPEAQLDPNAVLIVSIHRADGSPMPVAAARYPLGSFPRTVVLDDGNAMMQGQKLSSLEKLIVRVRADSDGNVATRDQDWHGESDVVEFGQPVAVTIDKQYQ", "soluble on expression in E. coli": "not soluble"}
{"sequence": "NNINVITDQMGNLDIKSNDNINQNTQNSNVASDLNLLTQNKYLENILMMNTYGVNYDHLFLPQNVAYLAAQQLSNNIMNNRNQINAAYTSQQYPNQSIPIKNIYDQSHLKYQQNSSSWRPPLNNGNIYDGVKSNPMGLHILQNGIDLYTNVDSNSVTSAINFDKYDSIPVSVTGPDYSATNVIENFDELKLDPTIRNNILLASYQRPTPIQKNAIPAILEHRDIMACAQTGSGKTAAFLIPIINHLVCQDLNQQRYSKTAYPKCLILAPTRELAIQILSESQKFSLNTPLRSCVVYGGADTHSQIREVQMGCHLLVATPGRLVDFIEKNKISLEFCKYIVLDEADRMLDMGFEPQIRKIIEESNMPSGINRQTLMFSATFPKEIQKLAADFLYNYIFMTVGRVGSTSDSIKQEIIYMTDVEKLNYLKNIFNTTAPNTLILIFVETKKGADSLARFLLSKGYPVSSIHGDRSQVEREAALSMFRNGQCPILVATAVAARGLDIPNVKHVINYDLPSDIEEYVHRIGRTGRLGNHGRATSFYVDKNNNIAIDLVDLLKEANQIVPQWLSALADELKRNSTMGSNNKRHNQRRYKNGNFGGRDYRQGPSNVNMNSGVNPDYFISGSVAPRHAKLNNGNYFPRSNELHDQHQKQNNNNNQVISNTFHTGISASHLIPGYATFNRQQAPLHFIPHQTNNTQFLSSSGQMALYNRMQNSGHMAPNQRFPNEPIHHQQEQLPITYNFSKNLPYLGQSYSGHNNNNNNNNNTSKINDSDSCYFGNKTPR", "soluble on expression in E. coli": "soluble"}
{"sequence": "MKFKKYILTGTLALLLSSTGIATIEGNKADASSLDKYLTESQFHDKRIAEELRTLLNKSNVYALAAGSLNPYYKRTIMMNEYRAKAALKKNDFVSMADAKVALEKIYKEIDEIINR", "soluble on expression in E. coli": "not soluble"}
